Test results taken from article PMC3328386 (The Journal of Cell Biology, 2012).

Columns and labels:
recombinant SUMO1 = recombinant SUMO1 (UniProt P63165 1-97); test: ITC
recombinant SUMO2 = recombinant SUMO2 (UniProt P61956 1-95); test: ITC
Sequence of recombinant SUMO2 (P61956 whole entry): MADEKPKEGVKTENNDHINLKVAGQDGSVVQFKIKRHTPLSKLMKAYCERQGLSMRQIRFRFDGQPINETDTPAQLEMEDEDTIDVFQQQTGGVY

Sequence of recombinant SUMO1 (P63165 1-97): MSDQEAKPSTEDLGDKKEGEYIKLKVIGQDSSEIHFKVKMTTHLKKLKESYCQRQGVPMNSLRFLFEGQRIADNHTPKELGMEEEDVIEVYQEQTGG

B1: recombinant HERC2 ZZ domain (amino acids 2702–2755), WT (domain or fragment)
chain: IHPGVTCDGCQMFPINGSRFKCRNCDDFDFCETCFKTKKHNTRHTFGRINEPGQ
Kd (recombinant SUMO1): ~3 µM
Kd (recombinant SUMO2): ~60 µM
